From the supplement of paper PMC9170038

test system: MS2 coat protein; assay: apparent KD of MS2 coat protein; higher = weaker reporter binding; settings: Eterna round: R107; input ligand: arginine 13.2 mM
Method: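 RNA-MaP round R107: designed RNA switches with theophylline, tryptophan, arginine or FMN aptamers are transcribed on-chip within common flanks. They are titrated with SNAP-549-labelled MS2 coat protein in RNA-MaP buffer (100 mM Tris pH 7.5, 80 mM KCl, 4 mM MgCl2), without ligand or with the indicated ligand. Median apparent KD per design.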

Sequence | apparent KD of MS2 coat protein
UGUAUGGACUGAAGGAGCGGAUGAUAACCUGAGGAUCACCCGGGUAAUAAGGCGAAAGCCAUCCAGGUAGGUCGCAGUCCAUACU | 53.2 nM

same assay, conditions: Eterna round: R107; input ligand: none

Sequence | apparent KD of MS2 coat protein
UUGUUGUUUGGAAGGAGCGUGUAAGAUUAAGAACAUGAGGAUCACCCAUGUUGUAAGGUAGCACAGGUAGGUCGCCGGGUGGUGG [11.T] | 14.4 nM
GCACCAGGUACGGAUACCAGCUAUAGGCACAGAGGAGGACAUGAGGAUCACCCAUGUGAUGGCCCUUGGCAGCUGUACCUGGUGC [EThB NP+V+V2 #3] | 12.9 nM
UCGGGCAUGGCGGCCGCCACUGGUUGGCGUGCGGAUGAGGGAACAUGAGGAUCACCCAUGUUGGUUAGGACCGGGCUUGCGUCGU [knkmullin] | 16.5 nM
AAUAUAAUAUAAAUAAUAAUAAUAUCUGAUACCAGACUCUCAUGUGUCCCUUGGCAGCAGUAACAUGAGGAUCACCCAUGUAAUA [JR_Nu_SSTheophyA_Sub027] | 62.7 nM
ACAUGAGGAUCACCCAUGUAAUAAGGAGAAGGAGCGCGUAAGGACGCAGGUAGGUCGCUCGUGGUCCGGCCGCAAGGCCGGACCA [#1 Same State - Arginine A Attempt #8 (HarryS)] | 11.2 nM
AUGGACGGCGAUCUGGGUUUACCAGAUCGGCGAGGACCGGUACGGCCGCCACUCGUGUUUAUUUAACAUGAGGAUCACCCAUGUA [SSTA #2] | 97.6 nM
UGGUAGGUAGGAAGGAGCGCAUACUUCACAUGAGGAUCACCCAUGUCGAGACGUGAGUCAGUGCAGGUAGGUCGCCUAGUUAUGA [Same State - Arginine B (Freestyle 23)] | 36.4 nM
ACCUGUACGAAAAGUGCAGGACAUGGAAAUCGAGGACCGGUACGGCCGCCACUCGUUGAAAACAAGUGGAUCACCCUUGUCCAUG [TrypAS 3 #AlternativeMS2 #Zipper #StaticStem] | 417 nM
GCCGGACUUUCGGCCGCCACUGAGAGAGUCGUGUGAACAUGAGGAUCACCCAUGUAAUAUAUAUACAGGACCGGGAGGGUUCGGC [4.S] | 12.2 nM
GUCUCUGAGAGAAGGAGCGUGAAGACAUGAGGAUCACCCAUGUAGAGGCGCCGAAGGCGUUCGCAGGUAGGUCGCUCUCAGAGAC [#1 Same State - Arginine B Attempt #20 (HarryS)] | 15.5 nM
UGUAUGUGAUCUGAUACCAGCGAUGAUAACCUGAGGAUCACCCUGGUAAGGCGAAAGCCUCGCCCUUGGCAGCAGAUCGCAUACU | 583 nM
GGGUACAUCGCGGCCGCCACUCGUGUAAAUACAUGAGGAUCACCCAUGUCGAUGGAGACAUCGGAGAGGACCGGGUGAUGUACCG | 81 nM
ACCGCAUCCGUAUAGGAUGCGGCCCAUGAAGGAGCGUGGGAAACCACAGGUAGGUCGCAUGGAUUACAUGAGGAUCACCCAUGUG [Skyfall] | 400 nM
AUGCAUAGCCGAAGGAGCGCAAUAGAAUGACAUGAGGAUCACCCAUGUGUGUGAUGUGGAUUGCAGGUAGGUCGCGGAGUGGUAU [Exclusion - Arginine B (Freestyle 4)] | 37.7 nM
UAUGCACAUGAGGAUCACCCAUGUAUGGAAGGAGCGGUGAAUAAACCAGGUAGGUCGCCAUGGUGAGGAUCAUCUAUGUAAUCGU [Exclusion - Arginine A (Freestyle 6)] | 93.2 nM
AAAAGUGGGUCAAUUAUUUAAACUUCAGAAGGAGCGUGAUGUUUCACAGGUAGGUCGCUGAUAACAUGAGGAUCACCCAUGUAUU [JR_ExcArginiA_Sub007] | 47.4 nM
CCUAUGCAGUCGGCCGCCACUGAAAUCAAUAAGAUUACCUCAGAAACAUGAGGAUCACCCAUGUACAGGACCGGGACUGUAUAGG [Ex Tryptophan B 16] | 40 nM
UGUAUGGACUGAAGGAGCGGAUGAUAACCUGAGGAUCACCCGGGUAAUAAGGCGAAAGCCAUCCAGGUAGGUCGCAGUCCAUACU | 101 nM

same assay, conditions: Eterna round: R107; input ligand: theophylline 20 uM

Sequence | apparent KD of MS2 coat protein
GUUUAAAGGUCGGCCGCCACUGUAGGAUGUGUUCUUUCACAUGAGGAUCACCCAUGUUGUUAUUAUAGGACCGGGAUUUUAGGAC [39MS split4] | 33.1 nM
UUGUUGUUUGGAAGGAGCGUGUAAGAUUAAGAACAUGAGGAUCACCCAUGUUGUAAGGUAGCACAGGUAGGUCGCCGGGUGGUGG [11.T] | 24.4 nM
AUCGUACCUGAAGAUACCAGCAUGUGAUCAUAACAUGAGGAUCACCCAUGUAAUCAGUGAUGCCCUUGGCAGCUUGAUCGGUACA [Same State - Theophylline B (Freestyle 12)] | 41.3 nM
GCACCAGGUACGGAUACCAGCUAUAGGCACAGAGGAGGACAUGAGGAUCACCCAUGUGAUGGCCCUUGGCAGCUGUACCUGGUGC [EThB NP+V+V2 #3] | 23.2 nM
UCGGGCAUGGCGGCCGCCACUGGUUGGCGUGCGGAUGAGGGAACAUGAGGAUCACCCAUGUUGGUUAGGACCGGGCUUGCGUCGU [knkmullin] | 18 nM
AAUAUAAUAUAAAUAAUAAUAAUAUCUGAUACCAGACUCUCAUGUGUCCCUUGGCAGCAGUAACAUGAGGAUCACCCAUGUAAUA [JR_Nu_SSTheophyA_Sub027] | 46.7 nM
AUAACAUGAGGAUCACCCAUGUAUUGGUAACGAGGACCGGUACGGCCGCCACUCGAAUUUUGGUGGUAUAAUAUAUAUAUGAUUA [JR_SSTryptoA_Sub016] | 25.4 nM
GAAUAAGAAUCGGCCGCCACUCACAUGAGGAUCACCCAUGUACAUGAGGAACAUGAAAAUCACCCGAGGACCGGGAUAUAUGUUC [Excluion - Tryptophan B #1] | 67.4 nM
ACAUUGCGCUCGGCCGCCACUGCCUUAUGAUUAUAAGGAUUAAUGAACAUGAGGAUCACCCAUGUCAGGACCGGGAGCGAACCAU [SSTryp B #6] | 16 nM
CUCGGUUGAUCCUAGCUGCCGAGAGGUGAUACCAGCAUCGAAAGAUGCCCUUGGCAGCACCAACAUGAGGAUCACCCAUGUAAUA [(MT)''-(M)'-(T')-(Theo)-(Ms2)_Design1/22_5] | 156 nM
CAUGGGUGGGUGCUGCCACCCAUUGGUGAUACCAGCAUCGAAAGAUGCCCUUGGCAGCACCAACAUGAGGAUCACCCAUGUAAUA [(M)'-(T)'-(M)''-(T1)-(T2)-(M1)-(M2)_Design4] | 145 nM
GCAUGUGGAGUCUUACUAGAGAGGACAGAUACCAGUAAGAUGUGAUACCCUUGGCAGCUGCGAUUUACAUGAGGAUCACCCAUGU [X-TheoA-ms2@67] | 21.4 nM
CUAUAAGUACCGGUCCUCAGAUCCUCAUGACGAGGACCGGUACGGCCGCCACUCGAAACAUGAGGAUCACCCAUGUAAUAAUAAU [Brourdmod06] | 38.5 nM
UUUGAAAUAACAGAUACCAGCGUGUUAUAAAACAUGAGGAUCACCCAUGUAGUGAUCAAGCGCCCUUGGCAGCUGGUAUUUUAGG [7.F] | 208 nM
ACAUGAGGAUCACCCAUGUAAUAAGGAGAAGGAGCGCGUAAGGACGCAGGUAGGUCGCUCGUGGUCCGGCCGCAAGGCCGGACCA [#1 Same State - Arginine A Attempt #8 (HarryS)] | 15.4 nM
UCGUUUGAGGCGGCCGCCACUGGUCUCAUGGUCAACAUGAGGAUCACCCAUGUAUCUUUGCUAAGCAGGACCGGGCCUCGAGCGA [#19 Exclusion Tryptophan B] | 87.4 nM
AUGGACGGCGAUCUGGGUUUACCAGAUCGGCGAGGACCGGUACGGCCGCCACUCGUGUUUAUUUAACAUGAGGAUCACCCAUGUA [SSTA #2] | 163 nM
UGGUAGGUAGGAAGGAGCGCAUACUUCACAUGAGGAUCACCCAUGUCGAGACGUGAGUCAGUGCAGGUAGGUCGCCUAGUUAUGA [Same State - Arginine B (Freestyle 23)] | 36.1 nM
UAUAUAUACUCGGCCGCCACUGAGAGAGUCAUGUAAACAUGAGGAUCACCCAUGUAAUAUAUAUACAGGACCGGGAGUAUAUGAA [4.B] | 17.7 nM
